Assay results published in US20240400614A1, “CLEAVABLE PEPTIDES AND METHODS OF USE THEREOF” (Bright Peak Therapeutics AG, priority 2023, published 2024).
Square brackets hold non-standard residues; d marks the D form. Ends that are not written are not given here. Tyr(3-NO2) = N[C@@H](Cc1ccc(O)c([N+](=O)[O-])c1)C(=O)O; 2Abz = Nc1ccccc1C(=O)O

Legend:
Type in all cases: biochemical
[1] = biological target: T1, matriptase (Homo sapiens, UniProt Q9Y5Y6); experiment: FRET peptide cleavage efficiency with matriptase; details: 200 uM linker, 1 ug/ml protease, 37° C., buffer B pH 9.0
T1 construct: purchased R&D Systems 3946-SEB
T1 sequence (Q9Y5Y6 615-855 limits assumed): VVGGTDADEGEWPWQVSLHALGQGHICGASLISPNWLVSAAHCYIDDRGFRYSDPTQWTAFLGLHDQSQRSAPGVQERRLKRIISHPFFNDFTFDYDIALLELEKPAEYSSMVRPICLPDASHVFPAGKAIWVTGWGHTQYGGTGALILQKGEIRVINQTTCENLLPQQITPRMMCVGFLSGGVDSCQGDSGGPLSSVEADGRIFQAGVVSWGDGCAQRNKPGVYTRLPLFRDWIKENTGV

[2] = biological target: uPA (Homo sapiens, UniProt P00749); experiment: FRET peptide cleavage efficiency with uPA; details: 200 uM linker, 1 ug/ml protease, 37° C., buffer A pH 8.5
[3] = biological target: T2, MMP-2 (Homo sapiens, UniProt P08253); experiment: FRET peptide cleavage efficiency with MMP-2; details: 200 uM linker, 1 ug/ml protease, 37° C., buffer C pH 7.5
T2 construct: purchased SIGMA PF023
T2 sequence (P08253 110-660): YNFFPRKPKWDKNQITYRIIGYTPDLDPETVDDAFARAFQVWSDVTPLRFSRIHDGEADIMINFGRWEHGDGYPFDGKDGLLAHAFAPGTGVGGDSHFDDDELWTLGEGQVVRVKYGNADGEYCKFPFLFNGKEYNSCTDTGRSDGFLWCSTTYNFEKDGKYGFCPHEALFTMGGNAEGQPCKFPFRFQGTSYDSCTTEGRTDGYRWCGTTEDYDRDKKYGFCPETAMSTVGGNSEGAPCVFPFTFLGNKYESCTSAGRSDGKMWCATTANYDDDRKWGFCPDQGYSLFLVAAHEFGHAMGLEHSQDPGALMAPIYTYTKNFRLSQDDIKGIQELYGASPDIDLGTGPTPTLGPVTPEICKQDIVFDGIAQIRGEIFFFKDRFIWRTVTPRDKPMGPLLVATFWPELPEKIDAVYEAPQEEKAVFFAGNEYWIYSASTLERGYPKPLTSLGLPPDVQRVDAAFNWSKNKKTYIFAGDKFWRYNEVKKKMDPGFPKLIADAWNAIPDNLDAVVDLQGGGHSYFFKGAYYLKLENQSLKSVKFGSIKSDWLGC

Row | Sequence | % cleavage Matriptase t = 15 min [1] [%] | % cleavage Matriptase t = 60 min [1] [%] | % cleavage Matriptase t = 120 min [1] [%] | % cleavage uPA t = 15 min [2] [%] | % cleavage uPA t = 60 min [2] [%] | % cleavage uPA t = 120 min [2] [%] | % cleavage MMP-2 t = 15 min [3] [%] | % cleavage MMP-2 t = 60 min [3] [%] | % cleavage MMP-2 t = 120 min [3] [%]
1 | SGRVLTLRKAGPANLVG ([2Abz]SGRVLTLRKAGPANLVG[Tyr(3-NO2)]-NH2) [LNK012] | 99 | 99 | 98 | 0 | 15 | 34 | 97 | 97 | 94
2 | SGRVLTLRKAPWGLLE ([2Abz]SGRVLTLRKAPWGLLE[Tyr(3-NO2)]-NH2) [LNK004] | 98 | 98 | 95 | 6 | 16 | 27 | 16 | 50 | 74
3 | SPLGLAGS ([2Abz]SPLGLAGS[Tyr(3-NO2)]-NH2) [LNK030] | 0 | 0 | 0 | 0 | 0 | 0 | 67 | 100 | 99

Next, values leading:

Row | % cleavage Matriptase t = 15 min [1] [%] | % cleavage Matriptase t = 60 min [1] [%] | % cleavage Matriptase t = 120 min [1] [%] | % cleavage uPA t = 15 min [2] [%] | % cleavage uPA t = 60 min [2] [%] | % cleavage uPA t = 120 min [2] [%] | % cleavage MMP-2 t = 15 min [3] [%] | % cleavage MMP-2 t = 60 min [3] [%] | % cleavage MMP-2 t = 120 min [3] [%] | Sequence
4 | 89 | 85 | 84 | 5 | 10 | 18 | 77 | 99 | 98 | SSRAVFRKNLGPLGLAG ([2Abz]SSRAVFRKNLGPLGLAG[Tyr(3-NO2)]-NH2) [LNK002]
5 | 77 | 99 | 99 | 4 | 17 | 30 | 54 | 98 | 99 | SSRGPASNRRLPLGLAG ([2Abz]SSRGPASNRRLPLGLAG[Tyr(3-NO2)]-NH2) [LNK001]
6 | 90 | 97 | 97 | 4 | 6 | 10 | 84 | 99 | 99 | SSRVFRKPANLAG ([2Abz]SSRVFRKPANLAG[Tyr(3-NO2)]-NH2) [LNK019]
